# Assay results reported in patent US20260274933A1 (Innovent, published 2026).
# Numbering of substitutions follows the chain as printed.
# T1: hAng2-biotin (R&D, Catalog No. BT623B/CF) (human, UniProt O15123 68-496, limits assumed, biotinylated)
# T1 construct: also called Ang2-Bio (R&D, Catalog No. BT623B/CF); Recombinant Biotinylated hAngiopoietin-2 protein (R&D)
# T1 sequence (looked up): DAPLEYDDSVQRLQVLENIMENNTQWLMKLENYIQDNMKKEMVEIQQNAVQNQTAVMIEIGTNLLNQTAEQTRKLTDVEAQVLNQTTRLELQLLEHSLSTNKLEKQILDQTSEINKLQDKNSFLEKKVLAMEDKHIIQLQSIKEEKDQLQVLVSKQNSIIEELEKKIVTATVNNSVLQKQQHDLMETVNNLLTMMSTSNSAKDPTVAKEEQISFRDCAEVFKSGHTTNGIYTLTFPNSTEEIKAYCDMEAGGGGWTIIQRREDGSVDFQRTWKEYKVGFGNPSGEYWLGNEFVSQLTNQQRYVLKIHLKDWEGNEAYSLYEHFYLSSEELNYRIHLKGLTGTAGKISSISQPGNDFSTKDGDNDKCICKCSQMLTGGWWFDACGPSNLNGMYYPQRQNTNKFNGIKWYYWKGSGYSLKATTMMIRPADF
# T2: hAng2-Fc (Beijing Sino Biological, Catalog No. 10691-H02H) (human, UniProt O15123 19-496)
# T2 construct: Bought fusion protein; also called human Ang2-hFc; recombinant hAng2-Fc protein; not shown: human Fc of the bought fusion protein
# T2 sequence (looked up): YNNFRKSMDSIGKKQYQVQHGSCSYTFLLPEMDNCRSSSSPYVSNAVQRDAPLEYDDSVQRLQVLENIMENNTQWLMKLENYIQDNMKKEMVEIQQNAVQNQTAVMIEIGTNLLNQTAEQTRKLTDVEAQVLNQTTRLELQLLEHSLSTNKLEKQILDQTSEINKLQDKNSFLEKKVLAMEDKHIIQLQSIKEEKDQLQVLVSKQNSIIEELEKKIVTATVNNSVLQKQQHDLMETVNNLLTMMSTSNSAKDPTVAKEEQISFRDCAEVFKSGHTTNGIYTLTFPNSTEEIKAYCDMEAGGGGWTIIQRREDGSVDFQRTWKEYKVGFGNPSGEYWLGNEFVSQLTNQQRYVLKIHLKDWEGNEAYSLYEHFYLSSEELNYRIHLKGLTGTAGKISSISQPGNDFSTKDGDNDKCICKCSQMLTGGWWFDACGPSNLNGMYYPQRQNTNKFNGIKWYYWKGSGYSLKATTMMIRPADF
# T3: human Ang2 (human, UniProt O15123 19-496, limits assumed)
# T3 construct: Antigen of the ForteBio assay; also called human Ang2 (Beijing Sino Biological)
# T3 sequence (looked up): T2 sequence (looked up)
# B1: IEX04-008 (bispecific antibody)
# chain: EVQLLESGGGLVQPGGSLRLSCAASGSIFSINAMGWHRQAPGKQRELVATMIGGSSTFYAESVQGRFTISRDNSKNTVYLQMNSLRAEDTAVYYCYADVTGRSGTSIWNKRDDYWGQGTQVTVSSGGGGSGGGGSEVQLLESGGGLVQPGGSLRLSCAASGSIFSINAMGWHRQAPGKQRELVATMIGGSSTFYAESVQGRFTISRDNSKNTVYLQMNSLRAEDTAVYYCYADVTGRSGTSIWNKRDDYWGQGTQVTVSSGGGGSGGGGSEVQLLESGGGLVQPGGSLRLSCAASGFALDYYAIGWFRQAPGKGLEGVSCISSGEGSTYYADSVKGRFTISRDNSKNTVYLQMNSLRAEDTAVYYCATDSRGDDVACEGLRRNEYDYWGQGTLVTVSS
# notes: also called LA46E11.8 (VHH) + linker + LA46E11.8 (VHH) + LA24C11.10
# B2: LA42F8.5 (VHH)
# VHH: EVQLLESGGGLVQPGGSLRLSCAASGFNLDYYPIGWFRQAPGKGLEGVSCISSVGSTNYADSVKGRFTISRDNSKNTVYLQMNSLRAEDTAVYYCAADPLCSALILPPPFLSWGQGTQVTVSS
# notes: also called humanized LA42F8
# B3: BI-anti-VEGF (VHH)
# VHH: DVQLVESGGGLVQPGGSLRLSCAASGRTFSSYSMGWFRQAPGKEREFVVAISKGGYKYDAVSLEGRFTISRDNAKNTVYLQINSLRPEDTAVYYCASSRAYGSSRLRLADTYEYWGQGTLVTVSS
# notes: also called Positive control antibody BI-anti-VEGF
# B4: IEX04-012 (bispecific antibody)
# chain: DIQLTQSPSSLSASVGDRVTITCSASQDISNYLNWYQQKPGKAPKVLIYFTSSLHSGVPSRFSGSGSGTDFTLTISSLQPEDFATYYCQQYSTVPWTFGCGTKVEIKGGGGSGGGGSGGGGSGGGGSEVQLVESGGGLVQPGGSLRLSCAASGYDFTHYGMNWVRQAPGKCLEWVGWINTYTGEPTYAADFKRRFTFSLDTSKSTAYLQMNSLRAEDTAVYYCAKYPYYYGTSHWYFDVWGQGTLVTVSSGGGGSGGGGSGGGGSEVQLLESGGGLVQPGGSLRLSCAASGFALDYYAIGWFRQAPGKGLEGVSCISSGEGSTYYADSVKGRFTISRDNSKNTVYLQMNSLRAEDTAVYYCATDSRGDDVACEGLRRNEYDYWGQGTLVTVSS
# notes: also called Ranibizumab scFv containing disulfide bond mutations + linker + LA24C11.10; recombinant anti-VEGF A/anti-Ang2 bispecific antibody
# B5: LA24C11 (Ang2 VHH) (VHH)
# VHH: QVQLVESGGGLVQPGGSLRLSCAASGFALDYYAIGWFRQAPGKEREGVSCISSGDGSTYYADSVKGRFTISRDNAKNTVYLQMNSLKPEDTAVYYCATDSRGDDVACEGLRRNEYDYWGQGTQVTVSS
# notes: Alpaca anti-Ang2 VHH
# B6: LA24C11.10 (Ang2 VHH) (VHH)
# VHH: B5 VHH with Q1E, V5L, E44G, R45L, D55E, A75S, K87R, P88A, Q123L
# notes: Humanized anti-Ang2 VHH; also called hz24C11.10; LA24C11.0
# B7: IgG (antibody, V domains shown)
# VH: EVRLLESGGGLVQPGGSLRLSCAASGFTFSNYAMGWVRQAPGKGLEWVSAISGSGGSTYYADSVKGRFTTSRDDSKNALYLQMNSLRAEDTAVYYCARGGPGWYAADVWGQGTTVTVSS
# VL: DIQMTQSPSSLSASVGDRVTITCRASQSISSYLNWYQQKPGKAPKLLIYAASSLQSGVPSRFSGSGSGTDFTLTISSLQPEDFATYYCQQADLPAFAFGGGTKVEIKR
# notes: also called Negative control IgG
# B8: LA46E11 (VEGFA VHH) (VHH)
# VHH: QVQLEESGGGLVQPGGSLRLSCVASGSIFSINAMGWHRQAPGSQRELVATMIGGSSTFYADSVNGRFTISRDNAKNTVYLQMNSLKLEDTAVYYCYADVTGRSGTSIWNKRDDYWGQGTLVTVSS
# notes: Alpaca anti-VEGF A VHH; also called LA46E11 supernatant
# B9: LA46E11.8 (VEGFA VHH) (VHH)
# VHH: B8 VHH with Q1E, E5L, V23A, S43K, D61E, N64Q, A74S, K86R, L87A, L120Q
# notes: Humanized anti-VEGF A VHH; also called humanized LA46E11
# Key:
# [1] = biological target: T1, hAng2-biotin (R&D, Catalog No. …); assay: blocking ELISA: hTie2 coated, binding of biotinylated hAng2 blocked; unit from the axis
# Description: (§1) The antigen-antibody mixture obtained as described above was incubated in the microplate for 90 min and washed three times with PBS, and the supernatant was discarded. 100 μL of Avidin-HRP (Invitrogen) diluted in a 1:10000 ratio was added to each well, incubated at room temperature for 30 min, and washed six times with PBS. A TMB chromogenic solution (solarbio) was added to the plate at 100 μL/well for color development for 1 min, and the reaction was stopped by adding a stop solution (Solarbio) at 100 μL/well.
# [2] = biological target: T2, hAng2-Fc (Beijing Sino Biological, …); assay: flow cytometry blocking: binding of hAng2-Fc to Tie2 on 293-Tie2 cells blocked, Mean PE-A; unit from the axis
# Description: (§2) The cells were centrifuged at 300 g for 5 min. The supernatant was discarded. Then the cells were resuspended in an antigen-antibody mixture. The mixture was incubated on ice for 30 min. PBS was added at 100 μL/well. After centrifugation at 300 g for 5 min, the mixture was washed once with PBS. 100 μL of goat anti-human IgG-PE (SouthernBiotech) diluted in a 1:200 ratio was added to each well. After a 20-min ice bath, PBS was added at 100 μL/well. The mixture was centrifuged at 300 g for 5 min, prior to one wash with PBS. The cells were resuspended with 100 μL of PBS. The cell fluorescence signal values were measured by a flow cytometer (BD Biosciences). According to MFI, the concentration-dependent curve was fitted with GraphPad.
# human VEGF165 (R&D) [3] = biological target: T4, human VEGF165 (R&D) (human, UniProt P15692-4 27-191); assay: BLI (ForteBio), bivalent binding
# T4 construct: Antigen of the ForteBio assay
# T4 sequence (P15692 other isoform, or with tags, fused parts or gaps limits assumed): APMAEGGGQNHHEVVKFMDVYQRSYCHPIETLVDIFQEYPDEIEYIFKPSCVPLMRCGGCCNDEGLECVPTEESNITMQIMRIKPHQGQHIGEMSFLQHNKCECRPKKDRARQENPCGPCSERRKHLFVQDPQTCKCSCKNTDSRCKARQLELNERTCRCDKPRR
# [4] = biological target: T5, biotin-labeled VEGF A165 (ACRO, Catalog No. VE5-H8210) (human, UniProt P15692-4 27-191, biotin-labeled); assay: blocking ELISA: biotin VEGF A165 captured on streptavidin, binding of VEGFR-Fc blocked; value printed as EC50 in the table under the curves, unit from the axis
# T5 construct: also called hVEGF A
# T5 sequence (P15692 other isoform, or with tags, fused parts or gaps limits assumed): as above
# Description: (§3) SA (Thermo, Catalog No. 21125) was diluted to 1 μg/mL, and 100 μL/well of SA was plated in a microplate at 4° C. overnight. The plate was washed 3 times with PBST and blocked with 3% BSA for 1.5 h. […] The plate was washed 6 times with PBST, the color development was performed with TMB for 5 min, and OD450 nm was read after stopping.
# [5] = biological target: T2, hAng2-Fc (Beijing Sino Biological, …); assay: flow cytometry blocking: binding of hAng2-Fc to Tie2 on 293-Tie2 cells blocked, Mean-PE-A; unit from the axis
# Description: as §2
# human Ang2 [6] = biological target: T3, human Ang2; assay: BLI (ForteBio), bivalent binding
# human Ang2 [7] = biological target: T3, human Ang2; assay: BLI (ForteBio), monovalent binding
# human Ang2 [8] = biological target: T3, human Ang2; assay: BLI (ForteBio), bivalent binding; * dissociation constant exceeding ForteBio detection limits
# [9] = biological target: T1, hAng2-biotin (R&D, Catalog No. …); assay: blocking ELISA: Tie2-Fc coated, binding of hAng2-biotin blocked
# Description: The plate was washed 3 times with PBST and blocked with 3% BSA for 1.5 h. […] The plate was washed 3 times with PBST, Avidin HRP (1:2000) was added, and the plate was incubated for 35 min. The plate was washed 6 times with PBST, the color development was performed with TMB for 5 min, and OD450 nm was read after stopping.
# [10] = biological target: T1, hAng2-biotin (R&D, Catalog No. …); assay: blocking ELISA: hTie2 coated, binding of biotinylated hAng2; fit value printed for the flat curve of the negative control, unit from the axis
# Description: as §1
# [11] = biological target: T1, hAng2-biotin (R&D, Catalog No. …); assay: as above; remark: listed apart in the source
# Description: as §1
# [12] = biological target: T5, biotin-labeled VEGF A165 (ACRO, Catalog …); assay: blocking ELISA: biotin VEGF A165 captured on streptavidin, binding of VEGFR-Fc; fit value printed for the flat curve of the negative control, unit from the axis
# Description: as §3
# [13] = biological target: T2, hAng2-Fc (Beijing Sino Biological, …); assay: flow cytometry blocking: binding of hAng2-Fc to Tie2 on 293-Tie2 cells, Mean PE-A; fit value printed for the flat curve of the negative control, unit from the axis
# Description: as §2
# [14] = biological target: T2, hAng2-Fc (Beijing Sino Biological, …); assay: flow cytometry blocking: binding of hAng2-Fc to Tie2 on 293-Tie2 cells, Mean-PE-A; fit value printed for the flat curve of the negative control, unit from the axis
# Description: as §2
# human VEGF165 (R&D) [15] = biological target: T4, human VEGF165 (R&D); assay: BLI (ForteBio), monovalent binding
binder,measurement,setting,value
B1,IC50,[1],13.5 nM
same,IC50,[2],0.554 nM
B2,Kd,human VEGF165 (R&D) [3],0.2 nM
same,koff,human VEGF165 (R&D) [3],0.000213 s⁻¹
same,kon,human VEGF165 (R&D) [3],1.06e+06 M⁻¹ s⁻¹
B3,EC50,[4],0.034 µg/mL
B4,IC50,[1],7.1 nM
same,IC50,[5],0.685 nM
B5,Kd,human Ang2 [6],0.867 nM
same,kon,human Ang2 [6],231000 M⁻¹ s⁻¹
same,Kd,human Ang2 [7],2.18 nM
same,koff,human Ang2 [7],0.00166 s⁻¹
same,kon,human Ang2 [7],761000 M⁻¹ s⁻¹
same,koff,human Ang2 [8],≤ 0.0002 s⁻¹
B6,Kd,human Ang2 [6],≤ 0.828 nM
same,kon,human Ang2 [6],242000 M⁻¹ s⁻¹
same,IC50 (read off the curve),[9],~0.06 µg/mL
same,koff,human Ang2 [8],≤ 0.0002 s⁻¹
B7,IC50,[10],~0.596 nM
same,IC50,[11],~6.79 nM
same,EC50,[12],0.00208 µg/mL
same,IC50,[13],~0.019 nM
same,IC50,[14],~10.1 nM
B8,Kd,human VEGF165 (R&D) [3],1.11 nM
same,koff,human VEGF165 (R&D) [3],0.0002 s⁻¹
same,kon,human VEGF165 (R&D) [3],179000 M⁻¹ s⁻¹
same,Kd,human VEGF165 (R&D) [15],7.74 nM
same,koff,human VEGF165 (R&D) [15],0.00142 s⁻¹
same,kon,human VEGF165 (R&D) [15],184000 M⁻¹ s⁻¹
same,EC50,[4],0.344 µg/mL
B9,Kd,human VEGF165 (R&D) [3],0.788 nM
same,koff,human VEGF165 (R&D) [3],0.000332 s⁻¹
same,kon,human VEGF165 (R&D) [3],421000 M⁻¹ s⁻¹
